Results published in patent US20040110663A1.

Target: Sonic hedgehog (Shh), human, as secreted by human cancer cell lines in co-culture (human)
Test: cell-based or functional assay

inhibition of luciferase expression in S12 cells (gli-Luc assay, S12/RT-4 co-cultures): 85 ng/mL
inhibition of luciferase expression in S12 cells (gli-Luc assay, S12/RT-4 co-cultures), IC90: 0.5 µg/mL
Substance: Shh blocking antibody 5E1
